Source: publication PMC11033958

What was measured:
[1] = biological target: purified ACKR3:CXCL12_(LRHQ) complex, ACKR3 phosphorylated in vitro by GRK5 (UniProt P25106); test: pull-down; 1.1 µM purified ACKR3:LRHQ complex phosphorylated by 1.1 µM GRK2 or GRK5 (1 mM ATP, 20 min, room temperature), 2.2 µM purified β-arrestin1 or 2 added for 40 min; captured on M2 anti-FLAG resin at 4°C, washed in 50 mM HEPES pH 7.5, 150 mM NaCl, LMNG/CHS, eluted with 3×FLAG peptide; SDS-PAGE band densities, arrestin as percent of ACKR3
[2] = biological target: ACKR3_RlucII (N-terminally FLAG-tagged human ACKR3, residues 2–362, with a C-terminal fusion of Renilla luciferase II) (human) (UniProt P25106)
[3] = biological target: purified ACKR3:CXCL12_(LRHQ) complex, ACKR3 phosphorylated in vitro by GRK2 (UniProt P25106); test: pull-down; 1.1 µM purified ACKR3:LRHQ complex phosphorylated by 1.1 µM GRK2 or GRK5 (1 mM ATP, 20 min, room temperature), 2.2 µM purified β-arrestin1 or 2 added for 40 min; captured on M2 anti-FLAG resin at 4°C, washed in 50 mM HEPES pH 7.5, 150 mM NaCl, LMNG/CHS, eluted with 3×FLAG peptide; SDS-PAGE band densities, arrestin as percent of ACKR3

Sequence of CXCL12 (P48061 22-93): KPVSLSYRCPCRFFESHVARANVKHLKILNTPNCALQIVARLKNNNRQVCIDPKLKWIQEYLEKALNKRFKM

bovine β-arrestin1 (from UniProt P17870 1-418) (natural protein)
percent of the receptor complexed with β-arrestin [1]: 49%

CXCL12 (from UniProt P48061 22-93) (ligand)
CXCL12 removed from the medium (25 nM CXCL12, 16 hours at 37°C) by WT HEK293A cells expressing ACKR3 RlucII, remaining chemokine by ELISA, against cells with empty vector [2]: 64%

bovine β-arrestin2 (1–393) (from UniProt P32120 1-393) (domain or fragment)
percent of the receptor complexed with β-arrestin [3]: 14%
percent of the receptor complexed with β-arrestin [1]: 73%
